Test results reported in patent publication US20260234276A1 (DOMAIN THERAPEUTICS, published 2026).
Where “and” joins values, the source holds several entries; their conditions need not be identical. Identical values can stand only once.

Experiments:
human CCR8 [1] = molecular target: T1, human CCR8 (human, UniProt P51685 1-355); assay: cell-based or functional assay
human CCR8 [2] = molecular target: T1, human CCR8; assay: flow cytometry, hCCR8 transfected CHOK1 cells
Method: Briefly, 1·10⁵ cells per well in a 96 well plate were incubated with a dilution of unconjugated anti-CCR8 mAb at 10 μg/mL then diluted at 1/3.33, 4 dilution points (during 30 min at 4° C.). […] To determine EC50 value, 8 concentrations of anti-CCR8 mAb were tested. Unbound antibodies were washed away with PBS (Invitrogen by Thermofisher Scientific, Illkirch-Graffenstaden, France) supplemented by 2% Fetal Bovine Serum (Invitrogen by Thermofisher Scientific, Illkirch-Graffenstaden, France) and 2 mM EDTA (Invitrogen by Thermofisher Scientific, Illkirch-Graffenstaden, France). Subsequently, cells are centrifuged (5 min at 400 g) and bound antibody is detected with F(ab′)₂-Goat anti-Mouse IgG (H+L) Cross-Adsorbed Secondary Antibody, Alexa Fluor 488 (dilution 1/500) (Invitrogen by Thermofisher Scientific, Illkirch-Graffenstaden, France) or with F(ab′)₂-Goat anti-Human IgG Fc Secondary Antibody, PE (Invitrogen by Thermofisher Scientific, Illkirch-Graffenstaden, France) (dilution 1/1000) at 4° C. for 30 min. Detection reagent is washed away and cells are centrifuged (5 min at 400 g) and resuspended in 30 μL PBS. Bound detection antibody is quantified on a MacsQuant16 (Miltenyi, Gladbach, Germany) (B1 or B2 channel, 5000 events per acquisition).

pm3 = pm3 (human, sulfated tyrosine at Y17); assay: ELISA on coated peptide [cont.]
pm3 (human, sulfated tyrosine at Y17), sequence (peptide, as listed by the source): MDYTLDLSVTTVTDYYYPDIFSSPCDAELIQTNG
Method: (§1) The specific binding properties of antibodies were evaluated by ELISA with coated CCR8 related peptides (500 ng/mL) in carbonate/bicarbonate buffer. Different peptides were used as described in Table 1 (see Example 1). Each anti-CCR8 mAb was tested at 1 μg/mL then diluted at 1/10. After an incubation at room temperature during 90 min, unbound mAbs were removed by washings. […] After washings, 3,3′,5,5′-tetramethylbenzidine (TMB) (Interchim, Montlugon, France) was added for 15 min. Then the optical density (OD) was determined by using a multiplate reader (Tecan, Lyon, France) and correlated with mAb reactivity on the panel of coated peptides.

pm8 = pm8 (human, sulfated tyrosines at Y15, Y16 and Y17); assay: ELISA on coated peptide [cont.]
pm8 (human, sulfated tyrosines at Y15, Y16 and Y17), sequence (peptide, as listed by the source): as above
Method: as §1

pm5 = pm5 (human, sulfated tyrosines at Y15 and Y17); assay: ELISA on coated peptide [cont.]
pm5 (human, sulfated tyrosines at Y15 and Y17), sequence (peptide, as listed by the source): as above
Method: as §1

pm6 = pm6 (human, sulfated tyrosines at Y16 and Y17); assay: ELISA on coated peptide [cont.]
pm6 (human, sulfated tyrosines at Y16 and Y17), sequence (peptide, as listed by the source): as above
Method: as §1

human CCR8 [3] = molecular target: T1, human CCR8; assay: cell-based or functional assay; remark: listed apart in the source

B1: 3-31 (antibody, V domains shown)
VH: DVQLQESGPGLVKPSQSLSLTCTVTGYSITSNYAWNWIRQFPGNKLEWMVYITYSGSTRFNPSLKSRISITRDTSKNQFFLQLNSVTTEDTATYYCARGENLFAYWGQGTLVIVSA
VL: DVVMTQTPLSLPVSLGDQASISCRSSQSLVHNNGNTYLHWYLQKPGQSPKLLIYKVSNRFSGVPDRFSGSGSGTDFTLKINRLEAEDLGVYFCSQSTYVPLTFGAGTKLELK
IC50 (Gi2 BRET, pH 6.5) (human CCR8 [1]): 0.163 µg/ml and 1.09 nM | IC50 (Gi2 BRET, pH 7.4) (human CCR8 [1]): 0.237 µg/ml and 1.58 nM | % positive cells (human CCR8 [2]): 65.6% | MFI fold change to isotype ctrl (human CCR8 [2]): 5.35 fold | binding result (pm3): binds | binding result (pm8): binds | binding result (pm5): binds | binding result (pm6): binds

B2: 3-12 (antibody, V domains shown)
VH: QVQLQQPGAVLVKPGASVKMSCKASGYTFTSYNMHWLKQTPGQGLEWIGAIAPGKGDTSHNQKFKGKATLTADKSSSTAYMQLSSLTSEDSAVYYCARRNNYEPFVYWGQGTLVTVSA
VL: DIVFTQSPASLAVSLGQRATISCRASESVEYYGTSLMQWYQQKPGQPPKLLIYAASNVESGVPARFSGSGSGTDFSLNIHPVEADDIAMYFCQQSRKVPFTFGSGTKLEIK
IC50 (Gi2 BRET, pH 6.5) (human CCR8 [1]): 0.037 µg/ml and 0.248 nM | IC50 (Gi2 BRET, pH 7.4) (human CCR8 [1]): 0.088 µg/ml and 0.587 nM | % positive cells (human CCR8 [2]): 87.8% | MFI fold change to isotype ctrl (human CCR8 [2]): 14.9 fold | binding result (pm8): binds | binding result (pm5): binds | binding result (pm6): binds

B3: 3-47 (antibody, V domains shown)
VH: QVQLQQPGAELVKPGASVKMSCKASGYTFTSYNMHWVKQTPGQGLEWIGAISPGNGDTSYNQKFKGKATLTADKSSSTAYMQLSSLTSEDSAVYYCARGKNGNVPMDYWGQGTSVTVSS
VL: DIVLTQSPASLAVSLGQRATISCRASESVEYYGTSLMKWYQQKPGQPPKLLIYAASIVESGVPARFSGSGSGTDFSLNIHPVEEDDIAMYFCQQSRKVPWTFGGGTKLEIK
IC50 (Gi2 BRET, pH 6.5) (human CCR8 [1]): 0.175 µg/ml and 1.16 nM | IC50 (Gi2 BRET, pH 7.4) (human CCR8 [1]): 0.483 µg/ml and 3.22 nM | % positive cells (human CCR8 [2]): 75.8% | MFI fold change to isotype ctrl (human CCR8 [2]): 6.81 fold | binding result (pm3): binds | binding result (pm8): binds | binding result (pm5): binds | binding result (pm6): binds

B4: 3-34 (antibody, V domains shown)
VH: EVQLQQSGPELVKPGASVKISCKTSGYTFTEYTIHWVKQSHGKSLEWVGGINPDNGNTRYDQKFKGKATLTIDKSSSTAYMELRSLTSEDSAVYYCARVARSSGSGPYAMDYWGQGTSVTVSS
VL: DVVMTQTPLSLPVSLGDQASISCRCTQSLLHTNGDTYLHWYLQKPGQSPKLLIYKVSNRFSGVPDRFSGSGSGTDFTLKISRVEAEDLGVYFCSQSTHVPYTFGGGTKLEIK
IC50 (Gi2 BRET, pH 6.5) (human CCR8 [1]): 0.207 µg/ml and 1.38 nM | IC50 (Gi2 BRET, pH 7.4) (human CCR8 [1]): 0.281 µg/ml and 1.88 nM | % positive cells (human CCR8 [2]): 73.7% | MFI fold change to isotype ctrl (human CCR8 [2]): 10.3 fold | binding result (pm3): binds | binding result (pm8): binds | binding result (pm5): binds | binding result (pm6): binds

B5: 3-44 (antibody, V domains shown)
VH: QVQLKESGPGLVAPSQSLSITCTVSGFSLTDYGVSWIRQPPGKGPEWLGVIWGGGNTYYNSVLKSRLSISNDNSKSQVFLRMNSLQTADTAIYYCARPRRDYYALDYWGQGTSVTVAS
VL: DVVMTQTPLSLPVSLGDQASISCRSSQSLVYTNGNTFLHWYLQKPGQSPKLLIYKVSNRFSGVPDRFSGSGSGTDFTLKISRVEAEDLGVYFCSQSTHVPPTFGGGTKLEIK
IC50 (Gi2 BRET, pH 6.5) (human CCR8 [1]): 0.578 µg/ml and 3.85 nM | IC50 (Gi2 BRET, pH 7.4) (human CCR8 [1]): 0.812 µg/ml and 5.41 nM | % positive cells (human CCR8 [2]): 78.9% | MFI fold change to isotype ctrl (human CCR8 [2]): 6.36 fold | binding result (pm3): binds | binding result (pm8): binds | binding result (pm5): binds | binding result (pm6): binds

B6: 3-42 (antibody, V domains shown)
VH: QVQLKESGPGLVAPSQSLSITCTVSGFSLTDYRVSWIRQPPGKGLEWLGVIWGGRSTYYNSALKSRLSISKDNSKSQVFLKMNSLQTDDTAMYYCAKQGDGYYALDYWGQGTSVTVSS
VL: DVVMTQTPLSLPVSLGDQASISCRSSQSLVHSYGNTYLHWYLQKPGQSPKLLIYKVSNRFSGVPDRFHGSGSGTDFTLKISRVEAEDLGVYFCSQSTHVPPTFGGGTKLEIK
IC50 (Gi2 BRET, pH 6.5) (human CCR8 [1]): 0.516 µg/ml and 3.44 nM | IC50 (Gi2 BRET, pH 7.4) (human CCR8 [1]): 0.82 µg/ml and 5.47 nM | % positive cells (human CCR8 [2]): 57.7% | MFI fold change to isotype ctrl (human CCR8 [2]): 3.84 fold | binding result (pm3): binds | binding result (pm8): binds | binding result (pm5): binds | binding result (pm6): binds

B7: 3-52 (antibody, V domains shown)
VH: QVQLQQPGSELVRPGASVKLSCKASGYTFTSYWMHWVKQRPGQGLEWIGNIWPGSASTNYDEKFKNKATLTVDTSSSTAYMQLSSLTSEDSAVYYCIRGGKGAMDYWSQGTSVTVSS
VL: DVVMTQIPLSLPVSLGDQASISCRSSQSLENSYGNTYLNWYLQKPGQSPQLLIYRVSNRFSGVLDRFSGSGSGTDFTLKISRVEAEDLGVYFCLQVTHVPPTFGAGTKLELK
hCCL1 (100 nM) residual response, Protocol #2, mAb 0.08 µg/mL (human CCR8 [3]): 99% | hCCL1 (100 nM) residual response, Protocol #2, mAb 0.4 µg/mL (human CCR8 [3]): 83% | hCCL1 (100 nM) residual response, Protocol #2, mAb 10 µg/mL (human CCR8 [3]): 56% | hCCL1 (100 nM) residual response, Protocol #3, mAb 0.05 µg/mL (human CCR8 [3]): 116% | hCCL1 (100 nM) residual response, Protocol #3, mAb 0.5 µg/mL (human CCR8 [3]): 90% | hCCL1 (100 nM) residual response, Protocol #3, mAb 5 µg/mL (human CCR8 [3]): 45% | IC50 (Gi2 BRET, pH 6.5) (human CCR8 [1]): 0.078 µg/ml and 0.523 nM | IC50 (Gi2 BRET, pH 7.4) (human CCR8 [1]): 0.087 µg/ml and 0.579 nM | % positive cells (human CCR8 [2]): 81.6% | MFI fold change to isotype ctrl (human CCR8 [2]): 9.92 fold

B8: 3-51 (antibody, V domains shown)
VH: QVQLQQSGAELVRPGVSVKISCKGSGYTFTDYAIHWVKQRHAKSLEWIGVISTYYGDTRYNQKFKGKATMTVDKSSNTAYMELARLTSEDSAIYYCARGGLRQDYAMNYWGQGTSVTVSS
VL: not shown
IC50 (Gi2 BRET, pH 6.5) (human CCR8 [1]): > 67 nM and > 10 µg/ml | IC50 (Gi2 BRET, pH 7.4) (human CCR8 [1]): > 10 µg/ml and > 67 nM | % positive cells (human CCR8 [2]): 73.2% | MFI fold change to isotype ctrl (human CCR8 [2]): 6.91 fold | binding result (pm8): binds | binding result (pm5): binds

B9: 3-23 (antibody, V domains shown)
VH: QVQLVETGGGLVRPGNSLKLSCVISGFTFSNYRIHWLRQPPGKRLEWIAVITVKSDNYEANYAESVKGRFTISRDDSKSSVYLQMNRLREEDTATYYCSRPDGFSPFVYWGQGTLVTVSA
VL: DIKMTQSPSSMYASLGERVTITCKASQDINNYLSWFQQKPGKSPKTLIYRADRLVDGVPSRFSGSGSGQDYSLTISSLDYEDMGIYYCLQYAEFPPTFGAGTKLELK
IC50 (Gi2 BRET, pH 6.5) (human CCR8 [1]): > 4.5 µg/ml and > 30 nM | IC50 (Gi2 BRET, pH 7.4) (human CCR8 [1]): > 4.5 µg/ml and > 30 nM | % positive cells (human CCR8 [2]): 80% | MFI fold change to isotype ctrl (human CCR8 [2]): 12.7 fold | binding result (pm3): binds | binding result (pm8): binds | binding result (pm5): binds | binding result (pm6): binds

B10: 3-40 (antibody, V domains shown)
VH: QVQLKESGPGLVAPSQSLSITCTVSGLSMNDYVVTWIRQPPGKGLEWLGVIWGGGNTYYNSDLKSRLSITKDNSKSQVFFKMSSLQTDDTAVYYCARRHRDYALDYWGQGISVTVSS
VL: ENVLTQSPAIMSASPGEKVTMTCRASSSVSSSYLHWYQQKSGASPKLWIYSTSNLASGVPARFSGSGSGTSYSLTISSVEAEDAATYYCQQYSGYPYTFGGGTKLEIK
% positive cells (human CCR8 [2]): 69.9% | MFI fold change to isotype ctrl (human CCR8 [2]): 5.81 fold | binding result (pm3): binds | binding result (pm8): binds | binding result (pm5): binds | binding result (pm6): binds
